From the Immune Epitope Database (IEDB) come the findings set out here.

What is called IC50 is the concentration that gives 50% inhibition.

Where only a bound is given, the exact number is not on record here.

One assay concerns the target HLA-B*07:02. In words: IEDB peptide-MHC binding, purified MHC/competitive/radioactivity; ≥ and ≤ were set here for values at or beyond the usual limits of such assays. The following applies: source organism: Bordetella pertussis.
On to ARRSRVRAL, for which the 50% inhibitory concentration (IC50) amounted to 15.8 µM.
In the case of NPYTSRRSV, the IC50 worked out at 0.274 µM.
The same measure, in the same setting: to TVLAAGAGL belongs 69.6 µM.

For the next assay, the target named is HLA-B*53:01. The description is as above. The following applies: source organism: Bordetella pertussis.
With DPPATVYRY, the IC50 worked out at 52.9 µM.

A further assay addresses HLA-B*44:03. The assay is described as above. To be noted: source organism: Bordetella pertussis.
Regarding PGPQPPQPQ, the IC50 amounted to 48.6 µM.
On to TEVYLEHRM, for which the concentration for half-maximal inhibition (IC50) was found to be 2.72 µM.

The next assay deals with HLA-A*02:01. The assay is described as above. The following applies: source organism: Bordetella pertussis.
EGKMESNKD: the IC50 is at least 78.1 µM.
Still for that read-out and setting: to KLLHHILPI belongs 0.312 µM; to RKMLYLIYV, 5.45 µM; to SLFAILSST, 1.42 µM.

The target in a further assay is HLA-B*35:01. The description is as above. To be noted: source organism: Bordetella pertussis.
With ADDPPATVY, the IC50 was 69.9 µM.
Consider DPPATVYRY, for which the IC50 was 7.2 µM.
The same measure, in the same setting: the result for EPVKLTLTG reads 13.7 µM.
Consider EVRADNNFY, for which the IC50 was 25.6 µM.
On the same count and under the same terms, to PKPKPKPKP belongs 64.9 µM.

The next assay addresses HLA-B*57:01. The assay is described as above. To be noted: source organism: Bordetella pertussis.
As for KQADRDFVW, the IC50 is 11.3 µM.
Same read-out and setting: the result for LSGEVQRKG reads at least 70.4 µM.
Take RVRALSWLL: the IC50 amounted to 2.12 µM.
The same measure, in the same setting: to TSRRSVASI belongs 4.54 µM.
